Where a SMILES comes first, the peptide text is derived from it. Bridges are numbered along the chain shown (N, C = ends). The star is where a group is joined. DOTA = O=C(O)CN1CCN(CC(=O)O)CCN(CC(=O)*)CCN(CC(=O)O)CC1
How the values were obtained:
ADAMTS4 [1] = biological target: T1, ADAMTS4 (Homo sapiens, UniProt O75173); test: Relaxivity at 3 Tesla, unbound and bound to ADAMTS4; type: physicochemical; details: 3 T, 1% BSA in PBS
T1 construct: purchased R&D systems 4307-AD-020
T1 sequence (O75173 213-837): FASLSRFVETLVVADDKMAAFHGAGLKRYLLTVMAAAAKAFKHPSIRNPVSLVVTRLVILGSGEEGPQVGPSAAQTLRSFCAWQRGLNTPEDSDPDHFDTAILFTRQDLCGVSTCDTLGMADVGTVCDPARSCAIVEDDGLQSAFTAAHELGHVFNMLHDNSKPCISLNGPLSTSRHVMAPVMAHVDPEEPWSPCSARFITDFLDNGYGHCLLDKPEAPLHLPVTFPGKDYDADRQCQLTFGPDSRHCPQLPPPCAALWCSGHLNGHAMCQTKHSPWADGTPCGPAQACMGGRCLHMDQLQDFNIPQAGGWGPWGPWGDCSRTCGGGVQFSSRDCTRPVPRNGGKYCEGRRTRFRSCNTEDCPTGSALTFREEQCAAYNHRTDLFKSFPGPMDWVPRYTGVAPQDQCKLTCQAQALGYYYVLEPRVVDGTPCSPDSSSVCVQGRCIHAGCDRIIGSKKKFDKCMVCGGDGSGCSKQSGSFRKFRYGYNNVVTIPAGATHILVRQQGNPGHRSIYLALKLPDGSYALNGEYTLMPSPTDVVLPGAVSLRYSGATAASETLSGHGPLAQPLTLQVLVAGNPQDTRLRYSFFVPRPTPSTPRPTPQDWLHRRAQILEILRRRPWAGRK
Procedure: One milliliter of a 1 µg/ml solution of the ADAMTS4-specific probe in 1% BSA in PBS buffer was measured in a reaction tube using a 3 T MRI scanner. 1% BSA in PBS buffer was used as a negative control. After each scan, 50 µl of a 0.2 µg/µl solution of ADAMTS4 (R&D systems, 4307-AD-020) was added to one reaction tube, while 50 µl of the 1% BSA in PBS buffer was added to the second reaction tube. Tubes were shaken and measured again. The following ADAMTS4 concentrations were measured: 0 µg, 10 µg, 20 µg, 30 µg, 40 µg, 50 µg, and 60 µg.

ADAMTS4 [2] = biological target: T2, ADAMTS4 (Homo sapiens, UniProt O75173); test: MST of earlier manuscript version (RED-tris-NTA labeled protein); details: earlier manuscript version quoted in peer review file; RED-tris-NTA labeled ADAMTS4, FAM-5 labeled peptides; read-out: binding constant (KD)
T2 construct: This is consistent with the recombinant proteins, we used in the screening process; purchased BioTeZ Berlin-Buch GmbH 30 400 102
T2 sequence (O75173 213-685): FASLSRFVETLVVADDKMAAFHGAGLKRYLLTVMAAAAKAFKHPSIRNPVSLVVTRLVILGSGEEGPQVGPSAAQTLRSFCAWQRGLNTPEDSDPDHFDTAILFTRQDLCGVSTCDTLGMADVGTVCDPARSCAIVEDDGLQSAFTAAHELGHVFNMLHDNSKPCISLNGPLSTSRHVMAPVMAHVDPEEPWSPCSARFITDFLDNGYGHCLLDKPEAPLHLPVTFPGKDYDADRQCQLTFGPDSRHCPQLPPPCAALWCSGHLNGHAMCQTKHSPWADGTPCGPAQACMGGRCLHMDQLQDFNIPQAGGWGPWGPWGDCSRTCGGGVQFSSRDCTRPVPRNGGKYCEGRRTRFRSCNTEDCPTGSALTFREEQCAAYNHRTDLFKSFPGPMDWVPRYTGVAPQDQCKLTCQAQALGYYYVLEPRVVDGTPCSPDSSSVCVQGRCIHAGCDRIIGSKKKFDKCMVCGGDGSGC
Excerpt: on the beads. Additionally, we could not find any traces of proteins in the MALDI-TOF-MS […]
We identified one candidate as the most promising binding peptide for ADAMTS4 with the sequence Ser- Cys*-Gly-Arg-Arg-Ser-Cys* (Supp. Fig. 1b, c).
5. “The representation of SPR data needs to be adjusted, additional experimental details have to be added to the Supplemental figures. Please, see the comments in Supplemental for details.” We apologize to the reviewer for this oversight. All data are now added to the supplemental material. SPR was only use for classification to determine whether the peptides represent potential […]
Page 8: For the resulting ADAMTS4- specific probe, we measured a binding constant of 38 nM […]
6. […] The data quality if […]
unfortunately too poor (the amplitude too low; minimal recommended amplitude is 3). Also, why were the FAM-5 labeled peptides used in the combination with the RED-tris-NTA labeled protein? […]
Additionally, we measured the same probe against ADAMTS1 and ADAMTS5 in the same concentration range, and we could not detect binding in this range (Supp. Fig. 2a). […]
R = Ranti−His−Ab ∗ MADAMTS4 ∗ Valencyanti−His−Ab we calculated a Rmax of 5524 µRIU. […]
Before and after the run, a blank was measured. […]
19. […] Using the fluorescence of the labeled […]
We added the sensogram and calculated the protein capture (please refer to question 16).

Question: How did the “longitudinal relaxivity, unbound probe” value (ADAMTS4 [1]) turn out when `N=C(N)NCCC[C@@H]1NC(=O)[C@H](CCCNC(=N)N)NC(=O)[C@H](CO)NC(=O)[C@@H](N)CSSC[C@@H](C(=O)N[C@@H](CO)C(=O)NCC(=O)NCC(=O)N[C@@H](CO)C(=O)NCC(=O)NCC(=O)N[C@@H](CCCCNC(=O)CN2CCN(CC(=O)O)CCN(CC(=O)O)CCN(CC(=O)O)CC2)C(=O)NCC(N)=O)NC(=O)CNC1=O` (Gd complex, metal not drawn) [ADAMTS4-specific probe] (H-CSRRGCSGGSGGK(DOTA)G-NH2; disulfide 1-6) was run?
Answer: 3.4 ± 0.19 mM⁻¹ s⁻¹

Question: And the “longitudinal relaxivity, bound probe” value (ADAMTS4 [1]; ADAMTS4 added)?
Answer: 6.13 ± 0.73 mM⁻¹ s⁻¹

Question: And the Kd (ADAMTS4 [2])?
Answer: 38 nM

Reference: article PMC9126943, “ADAMTS4-specific MR probe to assess aortic aneurysms in vivo using synthetic peptide libraries” (Nature Communications, 2022)
